Source: patent US20130005646A1 (Novo Nordisk, published 2013)
Starred links: 1 amine or outer side, 2 acyl side, 3 side chain; linkers in the order of their positions; H or OH if unused. Positions of bridges follow the written chain, without caps; N, C: chain ends. Groups on a side chain read outwards from the residue. Primed or numbered codes have the meaning given here. No end group written: not given here. *: point of attachment. C18 diacid′ = 17-carboxyheptadecanoyl on γGlu amine: (S)-4-carboxy-4-(17-carboxyheptadecanoylamino)butyryl; C20 diacid = O=C(O)CCCCCCCCCCCCCCCCCCC(=O)*; C18 diacid = O=C(O)CCCCCCCCCCCCCCCCC(=O)*; γGlu = O=C(O)[C@H](CCC(=O)[*:2])N[*:1]; AEEA = NCCOCCOCC(=O)O

T1: human amylin 3(a) receptor (human calcitonin receptor + RAMP-3) (human, UniProt P30988 25-474; O60896 24-148)
T1 sequence (looked up) 1: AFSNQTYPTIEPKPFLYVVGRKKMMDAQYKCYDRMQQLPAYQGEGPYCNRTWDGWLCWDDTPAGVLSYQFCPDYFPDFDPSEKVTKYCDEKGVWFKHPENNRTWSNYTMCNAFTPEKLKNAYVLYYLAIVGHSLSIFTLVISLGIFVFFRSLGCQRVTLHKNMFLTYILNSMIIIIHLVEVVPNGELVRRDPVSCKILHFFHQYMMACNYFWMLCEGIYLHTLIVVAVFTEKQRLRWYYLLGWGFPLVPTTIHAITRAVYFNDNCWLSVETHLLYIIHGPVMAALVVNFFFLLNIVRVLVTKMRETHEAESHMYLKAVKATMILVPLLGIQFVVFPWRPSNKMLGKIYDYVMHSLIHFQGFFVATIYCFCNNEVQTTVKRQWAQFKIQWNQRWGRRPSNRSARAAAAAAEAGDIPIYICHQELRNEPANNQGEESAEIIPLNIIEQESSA
T1 sequence (looked up) 2: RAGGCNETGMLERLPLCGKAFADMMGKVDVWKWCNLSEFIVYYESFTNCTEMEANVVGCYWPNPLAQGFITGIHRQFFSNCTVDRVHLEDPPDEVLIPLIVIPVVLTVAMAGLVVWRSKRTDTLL

T2: human calcitonin (a) receptor (human, UniProt P30988 25-474)
T2 sequence (looked up): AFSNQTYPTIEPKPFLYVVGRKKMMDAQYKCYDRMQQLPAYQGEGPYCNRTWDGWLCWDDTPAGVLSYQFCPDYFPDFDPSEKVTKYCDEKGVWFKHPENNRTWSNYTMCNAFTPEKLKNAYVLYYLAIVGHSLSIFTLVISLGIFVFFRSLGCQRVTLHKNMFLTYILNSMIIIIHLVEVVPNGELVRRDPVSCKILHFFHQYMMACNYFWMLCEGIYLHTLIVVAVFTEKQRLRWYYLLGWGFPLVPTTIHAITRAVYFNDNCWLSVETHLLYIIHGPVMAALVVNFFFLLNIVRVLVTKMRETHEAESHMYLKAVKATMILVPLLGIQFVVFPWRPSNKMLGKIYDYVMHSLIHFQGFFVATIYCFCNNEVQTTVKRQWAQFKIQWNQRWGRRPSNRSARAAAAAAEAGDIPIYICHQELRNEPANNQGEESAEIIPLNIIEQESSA

T3: rat amylin 3(a) receptor (rat calcitonin(a) receptor + rat RAMP3) (rat, UniProt P32214 25-516; Q9JJ73 23-147)
T3 sequence (looked up) 1: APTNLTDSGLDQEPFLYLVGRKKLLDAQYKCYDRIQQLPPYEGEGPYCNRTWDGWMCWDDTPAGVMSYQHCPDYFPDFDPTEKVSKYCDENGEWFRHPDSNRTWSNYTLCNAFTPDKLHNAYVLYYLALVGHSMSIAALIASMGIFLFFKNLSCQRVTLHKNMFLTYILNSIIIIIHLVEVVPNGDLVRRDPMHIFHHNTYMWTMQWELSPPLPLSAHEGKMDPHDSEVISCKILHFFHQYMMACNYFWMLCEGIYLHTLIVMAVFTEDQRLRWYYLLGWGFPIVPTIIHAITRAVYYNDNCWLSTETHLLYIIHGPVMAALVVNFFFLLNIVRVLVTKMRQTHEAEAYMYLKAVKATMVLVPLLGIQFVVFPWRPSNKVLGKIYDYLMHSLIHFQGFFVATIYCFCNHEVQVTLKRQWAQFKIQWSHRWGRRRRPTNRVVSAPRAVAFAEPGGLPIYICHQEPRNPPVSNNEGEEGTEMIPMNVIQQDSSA
T3 sequence (looked up) 2: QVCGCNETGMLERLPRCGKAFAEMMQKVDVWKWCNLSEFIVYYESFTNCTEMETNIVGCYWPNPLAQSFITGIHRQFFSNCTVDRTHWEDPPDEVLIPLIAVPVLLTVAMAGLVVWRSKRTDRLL

T4: rat calcitonin (a) receptor (rat, UniProt P32214 25-516)
T4 sequence (looked up): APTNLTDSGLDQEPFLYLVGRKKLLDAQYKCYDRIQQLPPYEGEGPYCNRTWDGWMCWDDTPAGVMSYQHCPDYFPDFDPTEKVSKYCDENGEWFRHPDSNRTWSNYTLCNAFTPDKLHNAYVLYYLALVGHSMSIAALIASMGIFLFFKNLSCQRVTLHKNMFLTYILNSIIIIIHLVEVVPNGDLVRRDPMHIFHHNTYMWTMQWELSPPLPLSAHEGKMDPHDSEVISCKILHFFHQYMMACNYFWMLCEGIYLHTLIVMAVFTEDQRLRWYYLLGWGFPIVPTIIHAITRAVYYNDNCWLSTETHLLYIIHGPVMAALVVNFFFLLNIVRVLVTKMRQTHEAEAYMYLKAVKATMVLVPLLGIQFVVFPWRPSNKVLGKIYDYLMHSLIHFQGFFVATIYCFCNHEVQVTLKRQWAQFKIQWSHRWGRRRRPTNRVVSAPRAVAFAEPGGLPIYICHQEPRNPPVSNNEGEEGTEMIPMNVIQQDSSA


Experiments:
Assay in all cases: cell-based or functional assay
[1] = target: T1, human amylin 3(a) receptor (human …)
[2] = target: T2, human calcitonin (a) receptor
[3] = target: T3, rat amylin 3(a) receptor (rat …)
[4] = target: T4, rat calcitonin (a) receptor

Binder	Amylin receptor human EC50 [1] [nM]	CTa receptor human EC50 [2] [nM]	Amylin receptor rat EC50 [3] [nM]	CTa receptor rat EC50 [4] [nM]
KCNTATCATQRLAEFLHHSSNNFGK([AEEA-AEEA-γGlu-C18 diacid])ILPPTNVGSNTY-NH2 (disulfide 2-7; N-terminus assumed; SMILES CC[C@H](C)[C@H](NC(=O)[C@H](CCCCNC(=O)COCCOCCNC(=O)COCCOCCNC(=O)CC[C@H](NC(=O)CCCCCCCCCCCCCCCCC(=O)O)C(=O)O)NC(=O)CNC(=O)[C@H](Cc1ccccc1)NC(=O)[C@H](CC(N)=O)NC(=O)[C@H](CC(N)=O)NC(=O)[C@H](CO)NC(=O)[C@H](CO)NC(=O)[C@H](Cc1c[nH]cn1)NC(=O)[C@H](Cc1c[nH]cn1)NC(=O)[C@H](CC(C)C)NC(=O)[C@H](Cc1ccccc1)NC(=O)[C@H](CCC(=O)O)NC(=O)[C@H](C)NC(=O)[C@H](CC(C)C)NC(=O)[C@H](CCCNC(=N)N)NC(=O)[C@H](CCC(N)=O)NC(=O)[C@@H](NC(=O)[C@H](C)NC(=O)[C@@H]1CSSC[C@H](NC(=O)[C@@H](N)CCCCN)C(=O)N[C@@H](CC(N)=O)C(=O)N[C@@H]([C@@H](C)O)C(=O)N[C@@H](C)C(=O)N[C@@H]([C@@H](C)O)C(=O)N1)[C@@H](C)O)C(=O)N[C@@H](CC(C)C)C(=O)N1CCC[C@H]1C(=O)N1CCC[C@H]1C(=O)N[C@H](C(=O)N[C@@H](CC(N)=O)C(=O)N[C@H](C(=O)NCC(=O)N[C@@H](CO)C(=O)N[C@@H](CC(N)=O)C(=O)N[C@H](C(=O)N[C@@H](Cc1ccc(O)cc1)C(N)=O)[C@@H](C)O)C(C)C)[C@@H](C)O)	0.0385	0.045	0.052	0.167
{C18 diacid-γGlu}-KCNTATCATQRLAEFLRHSSNNFGPILPPTNVGSHTY-NH2 (disulfide 2-7; SMILES CC[C@H](C)[C@H](NC(=O)[C@@H]1CCCN1C(=O)CNC(=O)[C@H](Cc1ccccc1)NC(=O)[C@H](CC(N)=O)NC(=O)[C@H](CC(N)=O)NC(=O)[C@H](CO)NC(=O)[C@H](CO)NC(=O)[C@H](Cc1c[nH]cn1)NC(=O)[C@H](CCCNC(=N)N)NC(=O)[C@H](CC(C)C)NC(=O)[C@H](Cc1ccccc1)NC(=O)[C@H](CCC(=O)O)NC(=O)[C@H](C)NC(=O)[C@H](CC(C)C)NC(=O)[C@H](CCCNC(=N)N)NC(=O)[C@H](CCC(N)=O)NC(=O)[C@@H](NC(=O)[C@H](C)NC(=O)[C@@H]1CSSC[C@H](NC(=O)[C@H](CCCCN)NC(=O)CC[C@H](NC(=O)CCCCCCCCCCCCCCCCC(=O)O)C(=O)O)C(=O)N[C@@H](CC(N)=O)C(=O)N[C@@H]([C@@H](C)O)C(=O)N[C@@H](C)C(=O)N[C@@H]([C@@H](C)O)C(=O)N1)[C@@H](C)O)C(=O)N[C@@H](CC(C)C)C(=O)N1CCC[C@H]1C(=O)N1CCC[C@H]1C(=O)N[C@H](C(=O)N[C@@H](CC(N)=O)C(=O)N[C@H](C(=O)NCC(=O)N[C@@H](CO)C(=O)N[C@@H](Cc1c[nH]cn1)C(=O)N[C@H](C(=O)N[C@@H](Cc1ccc(O)cc1)C(N)=O)[C@@H](C)O)C(C)C)[C@@H](C)O) [N-alpha-[(S)-4-Carboxy-4-(17-carboxyheptadecanoylamino)butyryl]-[Glu14,Arg17,His35]-pramlintide]	0.0675	0.335	0.038	2.36
{C18 diacid-γGlu}-KCNTATCATQRLAEFLHHSSNNFGPILPPTNVGSHTY-NH2 (disulfide 2-7; not fully specified; printed as N-alpha-[(S)-4-Carboxy-4-(17-carboxyheptadecanoylamino)butyryl]-[Glu14,His17,His35]-pramlintide) [N-alpha-[(S)-4-Carboxy-4-(17-carboxyheptadecanoylamino)butyryl]-[Glu14,His17,His35]-pramlintide]	0.056	0.0605	0.023	0.148
{C18 diacid′-γGlu}-EKCNTATCATQRLAEFLRHSSNNFGPILPPTNVGSHTY-NH2 (disulfide 3-8) [N-alpha-[(S)-4-Carboxy-4-(17-carboxyheptadecanoylamino)butyryl]-Glu-[Glu14,Arg17,His35]-pramlintide]	0.172	1.07	0.281	17.6
{C20 diacid-γGlu}-HKCNTATCATQRLAEFLHHSSNNFGPILPPTNVGSHTY-NH2 (disulfide 3-8; SMILES CC[C@H](C)[C@H](NC(=O)[C@@H]1CCCN1C(=O)CNC(=O)[C@H](Cc1ccccc1)NC(=O)[C@H](CC(N)=O)NC(=O)[C@H](CC(N)=O)NC(=O)[C@H](CO)NC(=O)[C@H](CO)NC(=O)[C@H](Cc1c[nH]cn1)NC(=O)[C@H](Cc1c[nH]cn1)NC(=O)[C@H](CC(C)C)NC(=O)[C@H](Cc1ccccc1)NC(=O)[C@H](CCC(=O)O)NC(=O)[C@H](C)NC(=O)[C@H](CC(C)C)NC(=O)[C@H](CCCNC(=N)N)NC(=O)[C@H](CCC(N)=O)NC(=O)[C@@H](NC(=O)[C@H](C)NC(=O)[C@@H]1CSSC[C@H](NC(=O)[C@H](CCCCN)NC(=O)[C@H](Cc2c[nH]cn2)NC(=O)CC[C@H](NC(=O)CCCCCCCCCCCCCCCCCCC(=O)O)C(=O)O)C(=O)N[C@@H](CC(N)=O)C(=O)N[C@@H]([C@@H](C)O)C(=O)N[C@@H](C)C(=O)N[C@@H]([C@@H](C)O)C(=O)N1)[C@@H](C)O)C(=O)N[C@@H](CC(C)C)C(=O)N1CCC[C@H]1C(=O)N1CCC[C@H]1C(=O)N[C@H](C(=O)N[C@@H](CC(N)=O)C(=O)N[C@H](C(=O)NCC(=O)N[C@@H](CO)C(=O)N[C@@H](Cc1c[nH]cn1)C(=O)N[C@H](C(=O)N[C@@H](Cc1ccc(O)cc1)C(N)=O)[C@@H](C)O)C(C)C)[C@@H](C)O) [N-alpha-[(S)-4-Carboxy-4-(19-carboxynonadecanoylamino)butyryl]-His-[Glu14,His17,His35]-pramlintide]	0.182	0.21	0.305	0.656
{C20 diacid-γGlu}-KCNTATCATQRLAEFLRHSSNNFGAPLSSTNVGSHTY-NH2 (disulfide 2-7; SMILES CC(C)C[C@H](NC(=O)[C@H](CCCNC(=N)N)NC(=O)[C@H](CCC(N)=O)NC(=O)[C@@H](NC(=O)[C@H](C)NC(=O)[C@@H]1CSSC[C@H](NC(=O)[C@H](CCCCN)NC(=O)CC[C@H](NC(=O)CCCCCCCCCCCCCCCCCCC(=O)O)C(=O)O)C(=O)N[C@@H](CC(N)=O)C(=O)N[C@@H]([C@@H](C)O)C(=O)N[C@@H](C)C(=O)N[C@@H]([C@@H](C)O)C(=O)N1)[C@@H](C)O)C(=O)N[C@@H](C)C(=O)N[C@@H](CCC(=O)O)C(=O)N[C@@H](Cc1ccccc1)C(=O)N[C@@H](CC(C)C)C(=O)N[C@@H](CCCNC(=N)N)C(=O)N[C@@H](Cc1c[nH]cn1)C(=O)N[C@@H](CO)C(=O)N[C@@H](CO)C(=O)N[C@@H](CC(N)=O)C(=O)N[C@@H](CC(N)=O)C(=O)N[C@@H](Cc1ccccc1)C(=O)NCC(=O)N[C@@H](C)C(=O)N1CCC[C@H]1C(=O)N[C@@H](CC(C)C)C(=O)N[C@@H](CO)C(=O)N[C@@H](CO)C(=O)N[C@H](C(=O)N[C@@H](CC(N)=O)C(=O)N[C@H](C(=O)NCC(=O)N[C@@H](CO)C(=O)N[C@@H](Cc1c[nH]cn1)C(=O)N[C@H](C(=O)N[C@@H](Cc1ccc(O)cc1)C(N)=O)[C@@H](C)O)C(C)C)[C@@H](C)O)	0.217	0.342	1.33	5.35
